Results reported in patent US20080161234A1, “Composition Comprising Lactic Acid and Lactoferrin” (priority 2004, published 2008).

Assays:
Format in all cases: cell-based
E. coli 06 = assay: Microbicidal microplate-droplet assay, E. coli; design: key to E. coli killing, growth grade in droplet assay: +++ means that the number of colony forming units (CFU) contained within 5 ul of a droplet formed a smooth layer of bacteria; ++ means that a “ruffled” area is seen; 0 means that no CFU were found in triplicate samples of 5 ul (>99.95 killed of the inoculum)
Method: The bacterial strains S. aureus 1800 (CCUG 1800), E. coli 06, and the yeast C. albicans (ATCC 64549) have been used in the microplate assay. All microorganisms were cultured in brain heart infusion medium (BHI) on a shaker over night at 37° C. A volume of the culture was transferred to a new tube with BHI and incubated for two more h on the shaker. The bacteria were harvested in the log phase, washed once and thereafter suspended in the broth used for the microplate assay. The suspension was adjusted spectrophotometrically and diluted to a concentration of approximately 4×10^6 cells per ml at 650 nm. Washed cells were suspended in 0.2% BP (pH 7.0) or BHI medium diluted 1/10 (0.34%, pH 6.7-6.9) (Difco, USA). The concentration of bacterial or fungal cells was spectrophotometrically adjusted. LF or peptide, serially diluted in BHIdil or BP by twofold steps (unless otherwise stated), were added in triplicate to the wells of a microtiterplate (200 ul per well). The bacterial or yeast cell solutions were added in 10 ul volumes to give a final concentration of approximately 2×10^5 cells per ml. The concentration of the stock solution was always checked by viable counts. The microplate was incubated at 37° C. in a humid chamber for 2 h unless otherwise stated. Five ul were taken from each well and added as a drop onto a blood agar plate and incubated over night at 37° C. In some experiments more thorough viable counts were performed and the killing was expressed as remaining colony forming units in relation to the inoculum. The lower limit for detection of microorganisms was 200 CFU/ml. The antimicrobial activity of human LF was analysed by the microbicidal assay described above. Different microbes such as C. albicans, E. coli and S. aureus were analysed with respect to their survival in lactate (not containing the inert gel base, which makes the gel unsuitable for the microbicidal assay) containing LF.

L. gasseri = assay: Survival of L. gasseri in lactate with LF; conditions: LF 2 mg/ml, lactate 1%, 0.34% BHI, CO2, 3 h
Method: L. gasseri and L. jensenii were cultured on chocolate-agar plates for 24 h in 5% CO2/95% air. They were thereafter harvested and added to BHI (0.34%). After washing the bacterial solutions were adjusted spectrophotometrically and diluted to 8×10^6 bacteria/ml.
Washed cells were suspended in 0.2% BP (pH 7.0) or BHI medium diluted 1/10 (0.34%, pH 6.7-6.9) (Difco, USA). The concentration of bacterial or fungal cells was spectrophotometrically adjusted. LF or peptide, serially diluted in BHIdil or BP by twofold steps (unless otherwise stated), were added in triplicate to the wells of a microtiterplate (200 ul per well). The bacterial or yeast cell solutions were added in 10 ul volumes to give a final concentration of approximately 2×10^5 cells per ml. The concentration of the stock solution was always checked by viable counts. The microplate was incubated at 37° C. in a humid chamber for 2 h unless otherwise stated. Five ul were taken from each well and added as a drop onto a blood agar plate and incubated over night at 37° C. In some experiments more thorough viable counts were performed and the killing was expressed as remaining colony forming units in relation to the inoculum. The lower limit for detection of microorganisms was 200 CFU/ml.
L. gasseri survived better in the assay system than did L. jensenii. Undiluted lactate (5%) affected the survival of Lactobacillus.

G. vaginalis (Gv 14) = assay: Growth inhibition of G. vaginalis by LF, spectrophotometric, 20 h anaerobic; conditions: LF in various concentrations, no lactate, 0.34% BHI
Method: (§1) The bacteria were incubated in 0.34% BHI under anaerobic conditions for 20 hours.
(§2) G. vaginalis and P. bivia were cultured on chocolate-GL-plates for 48 h in anaerobic milieu. The bacteria were harvested and suspended in BHI for further incubation (4 hours at 37° C.). The bacteria were washed twice in Bactopeptone (BP, 0.2%). The concentration was adjusted spectrophotometrically and diluted to 1×10^7 bacteria per ml.
(§3) The procedure for the microbicidal assay with regard to G. vaginalis and P. bivia was as described above except that the microplate was incubated under anaerobic conditions (2 h). Thereafter droplets of the solutions were analyzed for viable bacteria on blood agar plates after 48 h of anaerobic incubation at 37° C.
(§4) The microbicidal assay was modified in order to obtain survival conditions for G. vaginalis and P. bivia. Instead of 0.2% BP 0.34% BHI was used. The bacterial strains were analyzed with only LF added in various concentrations to the wells (no lactate present). The plate was incubated for 20 hours.

[1] = test system: P. bivia strains (Pb 57, Pb 62); assay: Growth inhibition of P. bivia by LF, spectrophotometric, 20 h anaerobic; conditions: LF in various concentrations, no lactate, 0.34% BHI
Method: as §1, §2, §3, §4

G. vaginalis = assay: Minimal bactericidal concentration (MBC99) of LF on G. vaginalis strains; conditions: concentration at which 99% killing was obtained, fivefold serial steps
Method: as §2, §3
Instead of 0.2% BP 0.34% BHI was used. […] The plate was incubated for 20 hours.

B1: LF: LF from human milk purchased from Sigma; single chain iron-binding glycoprotein (protein, UniProt P02788 20-710, looked up)
Lactotransferrin: GRRRSVQWCAVSQPEATKCFQWQRNMRKVRGPPVSCIKRDSPIQCIQAIAENRADAVTLDGGFIYEAGLAPYKLRPVAAEVYGTERQPRTHYYAVAVVKKGGSFQLNELQGLKSCHTGLRRTAGWNVPIGTLRPFLNWTGPPEPIEAAVARFFSASCVPGADKGQFPNLCRLCAGTGENKCAFSSQEPYFSYSGAFKCLRDGAGDVAFIRESTVFEDLSDEAERDEYELLCPDNTRKPVDKFKDCHLARVPSHAVVARSVNGKEDAIWNLLRQAQEKFGKDKSPKFQLFGSPSGQKDLLFKDSAIGFSRVPPRIDSGLYLGSGYFTAIQNLRKSEEEVAARRARVVWCAVGEQELRKCNQWSGLSEGSVTCSSASTTEDCIALVLKGEADAMSLDGGYVYTAGKCGLVPVLAENYKSQQSSDPDPNCVDRPVEGYLAVAVVRRSDTSLTWNSVKGKKSCHTAVDRTAGWNIPMGLLFNQTGSCKFDEYFSQSCAPGSDPRSNLCALCIGDEQGENKCVPNSNERYYGYTGAFRCLAENAGDVAFVKDVTVLQNTDGNNNEAWAKDLKLADFALLCLDGKRKPVTEARSCHLAMAPNHAVVSRMDKVERLKQVLLHQQAKFGRNGSDCPDKFCLFQSETKNLLFNDNTECLARLHGKTTYEKYLGPQYVAGITNLKKCSTSPLLEACEFLRK
E. coli killing, growth grade in droplet assay (E. coli 06; HLF 500 ug/ml, lactate 0.2%, 2 h incubation): ++ | E. coli killing, percentage of bacteria remaining in relation to the inoculum (E. coli 06; HLF 500 ug/ml, lactate 0.2%, 5 h incubation): 4% | E. coli killing, growth grade in droplet assay (E. coli 06; HLF 500 ug/ml, lactate 1%, 2 h incubation): ++ | E. coli killing, percentage of bacteria remaining in relation to the inoculum (E. coli 06; HLF 500 ug/ml, lactate 1%, 5 h incubation): 5% | E. coli killing, percentage of bacteria remaining in relation to the inoculum (E. coli 06; HLF 500 ug/ml, lactate 5%, 2 h incubation): 0 (0 means that no CFU were found in triplicate samples of 5 ul (>99.95 killed of the inoculum)) | E. coli killing, percentage of bacteria remaining in relation to the inoculum (E. coli 06; HLF 500 ug/ml, lactate 5%, 5 h incubation): 0 (0 means that no CFU were found in triplicate samples of 5 ul (>99.95 killed of the inoculum)) | E. coli killing, growth grade in droplet assay (E. coli 06; HLF 500 ug/ml, no lactal, 2 h incubation): +++ | E. coli killing, growth grade in droplet assay (E. coli 06; HLF 500 ug/ml, no lactal, 5 h incubation): +++ | E. coli killing, percentage of bacteria remaining in relation to the inoculum (E. coli 06; HLF 2000 ug/ml, lactate 0.2%, 5 h incubation): 5% | E. coli killing, percentage of bacteria remaining in relation to the inoculum (E. coli 06; HLF 2000 ug/ml, lactate 1%, 5 h incubation): 9% | E. coli killing, percentage of bacteria remaining in relation to the inoculum (E. coli 06; HLF 2000 ug/ml, lactate 5%, 2 h incubation): 0 (0 means that no CFU were found in triplicate samples of 5 ul (>99.95 killed of the inoculum)) | E. coli killing, percentage of bacteria remaining in relation to the inoculum (E. coli 06; HLF 2000 ug/ml, lactate 5%, 5 h incubation): 0 (0 means that no CFU were found in triplicate samples of 5 ul (>99.95 killed of the inoculum)) | E. coli killing, growth grade in droplet assay (E. coli 06; HLF 2000 ug/ml, no lactal, 2 h incubation): ++ | E. coli killing, percentage of bacteria remaining in relation to the inoculum (E. coli 06; HLF 2000 ug/ml, no lactal, 5 h incubation): 3% | E. coli killing, growth grade in droplet assay (E. coli 06; HLF 5000 ug/ml, lactate 0.2%, 2 h incubation): ++ | E. coli killing, percentage of bacteria remaining in relation to the inoculum (E. coli 06; HLF 5000 ug/ml, lactate 0.2%, 5 h incubation): 0.4% | E. coli killing, percentage of bacteria remaining in relation to the inoculum (E. coli 06; HLF 5000 ug/ml, lactate 1%, 5 h incubation): 16% | E. coli killing, percentage of bacteria remaining in relation to the inoculum (E. coli 06; HLF 5000 ug/ml, lactate 5%, 2 h incubation): 0 (0 means that no CFU were found in triplicate samples of 5 ul (>99.95 killed of the inoculum)) | E. coli killing, percentage of bacteria remaining in relation to the inoculum (E. coli 06; HLF 5000 ug/ml, lactate 5%, 5 h incubation): 0 (0 means that no CFU were found in triplicate samples of 5 ul (>99.95 killed of the inoculum)) | E. coli killing, growth grade in droplet assay (E. coli 06; HLF 5000 ug/ml, no lactal, 2 h incubation): ++ | E. coli killing, percentage of bacteria remaining in relation to the inoculum (E. coli 06; HLF 5000 ug/ml, no lactal, 5 h incubation): 2% | survival of L. gasseri (L. gasseri): 18% | growth inhibition of G. vaginalis (G. vaginalis (Gv 14)): Growth inhibition | growth inhibition of P. bivia [1]: Growth inhibition | MBC99 (G. vaginalis; G. vaginalis strain code 12): 500 µg/mL | MBC99 (G. vaginalis; G. vaginalis strain code 17): >2500 µg/mL | MBC99 (G. vaginalis; G. vaginalis strain code 23): 1000 µg/mL | MBC99 (G. vaginalis; G. vaginalis strain code 51): 100 µg/mL | MBC99 (G. vaginalis; G. vaginalis strain code 90): 4 µg/mL | MBC99 (G. vaginalis; G. vaginalis strain code 96): 100 to 500 µg/mL
